Measured values from patent publication US20090123479A1 (published 2009).

Tests used:
recombinant human IL-23 [1] = target: T1, recombinant human IL-23 (human, UniProt Q9NPF7 20-189; P29460 23-328); assay: SPR (Biacore 3000), CHO supernatant antibody captured on Protein A or anti-human IgG, IL-23 analyte at 256, 64, 16, 4 nM
T1 construct: also called hIL-23
T1 sequence 1: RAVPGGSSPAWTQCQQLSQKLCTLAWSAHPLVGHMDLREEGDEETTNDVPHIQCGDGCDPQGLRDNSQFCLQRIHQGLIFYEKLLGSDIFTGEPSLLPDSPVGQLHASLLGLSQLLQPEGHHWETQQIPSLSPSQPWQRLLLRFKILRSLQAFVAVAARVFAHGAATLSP
T1 sequence 2: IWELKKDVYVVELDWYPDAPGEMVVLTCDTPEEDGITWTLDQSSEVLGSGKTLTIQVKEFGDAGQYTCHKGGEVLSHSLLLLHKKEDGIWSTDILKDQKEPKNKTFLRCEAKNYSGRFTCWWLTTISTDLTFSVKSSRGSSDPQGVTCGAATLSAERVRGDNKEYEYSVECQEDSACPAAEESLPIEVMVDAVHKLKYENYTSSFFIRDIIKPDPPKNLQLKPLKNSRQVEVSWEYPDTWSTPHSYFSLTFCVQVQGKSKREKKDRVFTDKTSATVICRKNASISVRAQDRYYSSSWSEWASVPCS

recombinant human IL-23 [2] = target: T1, recombinant human IL-23; assay: SPR (Biacore T100), purified antibody captured on anti-human IgG, IL-23 analyte, 1:1 model
Method: (§1) Biacore analysis was carried out using a capture surface on a CM5 chip. Anti-human IgG (BR-1008-39) was used as the capturing agent. Anti-human IgG was coupled to a CM5 biosensor chip by primary amine coupling. Humanized antibody was captured on this immobilised surface and defined concentrations of IL-23 were passed over this captured surface. An injection of buffer over the captured antibody surface was used for double-referencing. […] T100 Biacore machine was used to generate the data; all runs were carried out at 25° C. using HBS EP. Data was analysed using the software inherent to the machine and fitted to the 1:1 model of binding. Tables 7 and 8 detail the IL-23 binding analysis carried out on the 8C92H6.HC1LC1 chimera and selected humanized variants in two separate experiments. Data presented in Tables 7 and 8 are from purified antibody samples. The data shown for the humanized variants is representative of a number of runs. The chimeric mAb (8C9H6.HC1LC1) was only run once in each experiment, so data shown for this mAb is from that one run.

recombinant human IL-23 [3] = target: T1, recombinant human IL-23; assay: SPR (Biacore T100), tissue culture supernatant antibody captured on anti-human IgG, IL-23 analyte
Method: as §1, with “Data presented in Tables 7 and 8 are from purified antibody samples.” left out

B1: A3M0 (antibody, human IgG1, kappa, V domains shown)
VH: QVQLVQSGAEVKKPGSSVKVSCKASGYTFTSYGITWVRQAPGQGLEWMGENYPRSGNTYYNEKFKGRVTITADKSTSTAYMELSSLRSEDTAVYYCARSEFISTVVAPYYYALDYWGQGTLVTVSS
VL: DIVMTQSPDSLAVSLGERATINCKASKKVTIFGSISALHWYQQKPGQPPKLIYNGAKLESGVPDRFSGSGSGTDFTLTISSLQAEDVAVYYCLQNKEVPYTFGGGTKVEIKR
notes: Full length chains; also called humanized mAb A3M0
B1 showed a Kd (recombinant human IL-23 [1]) of 1.1 nM, a koff (recombinant human IL-23 [1]) of 0.00033 s⁻¹ and a kon (recombinant human IL-23 [1]) of 300000 M⁻¹ s⁻¹. It also gave a Kd (recombinant human IL-23 [2]) of 0.194 nM, a koff (recombinant human IL-23 [2]) of 0.000237 s⁻¹ and a kon (recombinant human IL-23 [2]) of 1.22e+06 M⁻¹ s⁻¹. For the same binder, the Kd (recombinant human IL-23 [3]) was 0.17 nM, the koff (recombinant human IL-23 [3]) was 0.000234 s⁻¹ and the kon (recombinant human IL-23 [3]) was 1.38e+06 M⁻¹ s⁻¹.
